These results are taken from patent publication US20200079850A1 (SUTRO BIOPHARMA, published 2020).

In test [1] the target is T1, rabbit Fc-tagged recombinant human PD1 (rhPD1-rabbit Fc) (human, UniProt Q15116 25-167, limits assumed).
T1 construct: also called recombinant human PD-1 protein
The test can be described thus: flow cytometry competition: inhibition of rhPD1-rabbit Fc binding to human PD-L1 on CHO cells; PE anti-rabbit IgG detection. The protocol: CHO-k cells stably expressing human PD-L1 or PD-L2 were used to measure the ability of anti-PD1/LAG3 bi-specific antibody constructs to block rabbit Fc-tagged recombinant human PD1 (rhPD1-rabbit Fc) protein binding. Cells were seeded at 100,000 cells/well in 100 μL of FACS buffer in 96-well polypropylene plates. The cells were centrifuged and resuspended with test antibodies (2× concentration) diluted in FACS buffer, immediately followed by equal volume of rhPD1-rabbit Fc (added at 2× concentration; 0.2 ng/mL and 0.1 ng/mL final for PD-L1 and PD-L2, respectively). Cells were incubated on ice for 1 hour and washed twice. rhPD1-rabbit Fc binding on CHO-human PD-L1 or PD-L2 cells was detected with R-Phycoerythrin AffiniPure F(ab′)₂ Fragment Goat Anti-Rabbit IgG (H+L) (1:200 dilution, Jackson ImmunoResearch) for 30 minutes. The cells were washed twice with FACS buffer, fixed in 4% paraformaldehyde in PBS for 20 mins on ice in the dark, washed twice with FACS buffer, and analyzed using the BD LSR II Flow Cytometer. Data were analyzed using FlowJo (FlowJo, LLC; Ashland, Oreg.) to determine mean fluorescence intensities. Prism 6 software was used to create one site, specific binding with Hill slope curves (Log transform) to determine IC₅₀ values.
In general terms: Flow cytometry measures light scatter and fluorescence of single cells or particles in a stream.

In test [2] the target is T2, hPD1 (Acro Biosystems), SPR analyte (human, UniProt Q15116 25-167).
T2 construct: also called human PD1 kinetics
Put plainly: SPR (Biacore), antibody captured by anti-Fc, hPD1 as analyte, 25 C. Here is the method: Anti-Fc polyclonal antibodies were immobilized onto a CMS chip (GE Life Sciences) using amine coupling chemistry (from Amine Coupling Kit, GE Life Sciences). The immobilization steps were carried out at a flow rate of 25 μl/min in 1×HBS-EP+buffer (GE Life Sciences; 10× Stock diluted before use). The sensor surfaces were activated for 7 min with a mixture of NHS (0.05 M) and EDC (0.2 M). The Anti-Fc antibodies were injected over all 4 flow cells at a concentration of 25 ug/ml in 10 mM sodium acetate, pH 4.5, for 7 min. Ethanolamine (1 M, pH 8.5) was injected for 7 min to block any remaining activated groups. An average of 12,000 response units (RU) of capture antibody was immobilized on each flow cell.
Kinetic binding experiments were performed at 25° C. using 1×HBS-EP+buffer. Test and control antibodies were injected over the anti-Fc surface at concentrations of 5-10 μg/mL for 12 seconds at a flow rate of 10 μl/min on flow cells 2, 3 and 4, followed by a buffer wash for 30 seconds at the same flow rate. Kinetic characterization of antibody samples was carried out with a dilution series of antigen and 1 injection of 0 nM antigen. After capturing ligand (antibody) on the anti-Fc surface, the analyte (hPD1 or hLAG3, Acro Biosystems, Newark, Del.) was bound at 100, 25, 6.25 and 0 nM for 180 seconds, followed by a 450 second dissociation phase at a flow rate of 50 μl/min. Between each ligand capture and analyte binding cycle, regeneration was carried out using 2 injections of 10 mM Glycine pH 2.0 for 30 seconds at 30 μL/min, followed by a 30 second buffer wash step.
The data was fit with the Biacore T200 Evaluation software, using a 1:1 Langmuir binding model. KD (affinity, nM) was determined as a ratio of the kinetic rate constants calculated from the fits of the association and dissociation phases.

The target in test [3] is T3, human PD-1 expressed on the surface of CHO cells (human, UniProt Q15116 25-288).
T3 construct: I took it as human PD-1; also called CHO-PD1
Put plainly: flow cytometry cell binding on CHO cells expressing human PD-1; PE anti-human IgG detection; one site-specific binding with Hill slope fit. Here is the method:
(§1) CHO-k cells stably expressing PD-1 or LAG3 (human or cynomolgus) on the cell surface were used to assess binding affinity of anti-PD-1/LAG3 bispecific antibody constructs. Cells were seeded at 100,000 cells/well in 100 μL of FACS buffer (1×PBS, 0.5% BSA, 0.1% sodium azide) in 96-well polypropylene plates. The cells were centrifuged at 1.5K rpm and resuspended with test antibodies diluted in FACS buffer and incubated on ice for 1 hour. The cells were washed twice with FACS buffer and incubated on ice for 30 mins with R-Phycoerythrin-AffiniPure F(ab′)2 Fragment Goat Anti-Human IgG (H+L) secondary detection antibody (1:200 dilution, Jackson ImmunoResearch Laboratories, West Grove, Pa.). The cells were washed twice with FACS buffer, fixed in 4% paraformaldehyde in PBS (Santa Cruz Biotechnology; Dallas, Tex.) for 20 mins on ice in the dark, washed twice with FACS buffer, and analyzed using the BD LSR II Flow Cytometer (BD Biosciences; San Jose, Calif.). Data were analyzed using FlowJo (FlowJo, LLC; Ashland, Oreg.) to determine mean fluorescence intensities. Binding constants were calculated using the statistical software, GraphPad Prism (GraphPad Software; La Jolla, Calif.) using the nonlinear regression equation, one site—specific binding with Hill slope. The secondary antibody by itself was used as a control.

For test [4], the target named is T4, human LAG3 expressed on the cell surface (CHO-LAG3, 293T-LAG3 cells) (human, UniProt P18627 23-525).
T4 construct: Stably transfected CHO or HEK293T cells; also called Human LAG3 (CHO); Human LAG3 (293T)
T4 sequence: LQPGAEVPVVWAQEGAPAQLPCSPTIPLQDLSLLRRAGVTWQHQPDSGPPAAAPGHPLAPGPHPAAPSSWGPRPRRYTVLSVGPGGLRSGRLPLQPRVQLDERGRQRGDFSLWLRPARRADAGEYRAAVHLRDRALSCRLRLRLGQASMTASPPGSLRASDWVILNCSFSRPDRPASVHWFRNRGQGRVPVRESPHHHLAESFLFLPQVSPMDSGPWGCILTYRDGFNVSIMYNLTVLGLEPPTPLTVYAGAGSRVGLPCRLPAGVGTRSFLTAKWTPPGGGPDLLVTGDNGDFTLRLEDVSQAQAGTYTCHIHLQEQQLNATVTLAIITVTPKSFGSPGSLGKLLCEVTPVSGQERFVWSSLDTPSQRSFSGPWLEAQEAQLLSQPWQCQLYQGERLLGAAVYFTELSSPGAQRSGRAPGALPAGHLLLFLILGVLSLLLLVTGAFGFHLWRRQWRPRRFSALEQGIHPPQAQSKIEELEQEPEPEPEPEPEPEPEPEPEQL
The test can be described thus: flow cytometry cell binding on CHO cells expressing human LAG3; PE anti-human IgG detection; one site-specific binding with Hill slope fit. Here is the method:
as §1

T3 sequence (Q15116 25-288 limits assumed): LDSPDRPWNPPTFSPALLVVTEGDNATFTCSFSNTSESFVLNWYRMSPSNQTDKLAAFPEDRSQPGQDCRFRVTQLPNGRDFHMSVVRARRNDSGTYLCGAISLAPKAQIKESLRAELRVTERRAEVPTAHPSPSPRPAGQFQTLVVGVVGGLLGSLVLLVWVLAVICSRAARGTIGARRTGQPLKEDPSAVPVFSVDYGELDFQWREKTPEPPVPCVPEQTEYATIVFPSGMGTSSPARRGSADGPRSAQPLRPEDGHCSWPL
T2 sequence (Q15116 25-167 limits assumed): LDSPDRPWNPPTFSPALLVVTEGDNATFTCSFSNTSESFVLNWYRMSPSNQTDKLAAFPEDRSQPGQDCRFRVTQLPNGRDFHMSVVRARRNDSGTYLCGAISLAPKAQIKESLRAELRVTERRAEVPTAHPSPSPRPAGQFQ
T1 sequence (Q15116 25-167 limits assumed): as above

B1: PD-1/LAG3 Bi-specific Construct C: aPD1 1353-G10 Vk1-39LC scFvFc zwB V262E; aLAG3 1449-G09.2 Fab zwA V262E (bispecific antibody, human IgG1, kappa)
scFv: EVQLVQSGAEVKKPGASVKVSCKASGYRFPHYGISWVRQAPGQGLEWMGWISAYNGNTNYAQKLQGRVTMTTDTSTNTAYMELRSLRSDDTAVYYCARDVDYGTGSGYWGQGTLVTVSSGGGGSGGGGSGGGGSDIQLTQSPSSLSASVGDRVTITCSGDALPKQYAYWYQQKPGKAPKLLIYKDTERPSGVPSRFSGSSSGTKVTLTISSLQPEDFATYYCQSADNSITYRVFGGGTKVEIKAAGSDQEPKSSDKTHTCPPCPAPELLGGPSVFLFPPKPKDTLMISRTPEVTCEVVDVSHEDPEVKFNWYVDGVEVHNAKTKPREEQYNSTYRVVSVLTVLHQDWLNGKEYKCKVSNKALPAPIEKTISKAKGQPREPQVYVLPPSREEMTKNQVSLLCLVKGFYPSDIAVEWESNGQPENNYLTWPPVLDSDGSFFLYSKLTVDKSRWQQGNVFSCSVMHEALHNHYTQKSLSLSPGK
heavy: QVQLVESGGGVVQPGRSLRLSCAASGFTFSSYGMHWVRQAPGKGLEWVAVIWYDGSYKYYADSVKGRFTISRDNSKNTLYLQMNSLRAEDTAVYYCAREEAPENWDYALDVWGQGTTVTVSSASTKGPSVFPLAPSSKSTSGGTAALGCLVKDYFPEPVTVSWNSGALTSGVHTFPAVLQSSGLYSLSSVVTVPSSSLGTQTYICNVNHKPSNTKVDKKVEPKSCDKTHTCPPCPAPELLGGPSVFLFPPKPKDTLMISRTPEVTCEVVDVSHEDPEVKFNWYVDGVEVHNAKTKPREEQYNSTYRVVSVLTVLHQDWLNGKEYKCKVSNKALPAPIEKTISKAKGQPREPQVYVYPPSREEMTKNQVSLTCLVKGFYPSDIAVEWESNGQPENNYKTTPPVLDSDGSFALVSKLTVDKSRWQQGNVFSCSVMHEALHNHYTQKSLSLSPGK
light: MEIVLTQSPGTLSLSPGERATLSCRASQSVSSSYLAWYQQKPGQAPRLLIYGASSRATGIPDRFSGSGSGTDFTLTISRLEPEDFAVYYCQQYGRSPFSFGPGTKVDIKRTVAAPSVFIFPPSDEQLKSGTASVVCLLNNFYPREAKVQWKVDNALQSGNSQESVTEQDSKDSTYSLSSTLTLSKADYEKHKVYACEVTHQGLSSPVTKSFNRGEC
notes: The N-terminal Met is not included
As a reminder, the IC50 is the point on the concentration scale where inhibition reaches its midpoint. The term Kd denotes a measure of binding affinity in units of concentration. In general, koff refers to the first-order rate constant of dissociation. The low end stands for slow dissociation, the high end for fast dissociation. One may read the kon as a measure of how fast the partners come together. Regarding B1, in test [1], the IC50 worked out at 2.4 nM. In test [2], this molecule yielded a Kd of 1.29 nM, a koff of 0.000649 s⁻¹ and a kon of 503000 M⁻¹ s⁻¹. Also, in test [3], the Bmax stood at 3660 MFI and the dissociation constant Kd stood at 1.5 nM. In test [4], the Bmax was determined as 1020 MFI and the Kd was 0.5 nM.

B2: PD-1/LAG3 Bi-specific Construct B: aPD1 1353-G10 scFvFc zwB R28T/P30D/H31S V262E; aLAG3 1449-G09.2 Fab zwA V262E (bispecific antibody, human IgG1, kappa)
scFv: EVQLVQSGAEVKKPGASVKVSCKASGYTFDSYGISWVRQAPGQGLEWMGWISAYNGNTNYAQKLQGRVTMTTDTSTNTAYMELRSLRSDDTAVYYCARDVDYGTGSGYWGQGTLVTVSSGGGGSGGGGSGGGGSSYELTQPPSVSVSPGQTARITCSGDALPKQYAYWYQQKPGQAPVMVIYKDTERPSGIPERFSGSSSGTKVTLTISGVQAEDEADYYCQSADNSITYRVFGGGTKVTVLAAGSDQEPKSSDKTHTCPPCPAPELLGGPSVFLFPPKPKDTLMISRTPEVTCEVVDVSHEDPEVKFNWYVDGVEVHNAKTKPREEQYNSTYRVVSVLTVLHQDWLNGKEYKCKVSNKALPAPIEKTISKAKGQPREPQVYVLPPSREEMTKNQVSLLCLVKGFYPSDIAVEWESNGQPENNYLTWPPVLDSDGSFFLYSKLTVDKSRWQQGNVFSCSVMHEALHNHYTQKSLSLSPGK
heavy: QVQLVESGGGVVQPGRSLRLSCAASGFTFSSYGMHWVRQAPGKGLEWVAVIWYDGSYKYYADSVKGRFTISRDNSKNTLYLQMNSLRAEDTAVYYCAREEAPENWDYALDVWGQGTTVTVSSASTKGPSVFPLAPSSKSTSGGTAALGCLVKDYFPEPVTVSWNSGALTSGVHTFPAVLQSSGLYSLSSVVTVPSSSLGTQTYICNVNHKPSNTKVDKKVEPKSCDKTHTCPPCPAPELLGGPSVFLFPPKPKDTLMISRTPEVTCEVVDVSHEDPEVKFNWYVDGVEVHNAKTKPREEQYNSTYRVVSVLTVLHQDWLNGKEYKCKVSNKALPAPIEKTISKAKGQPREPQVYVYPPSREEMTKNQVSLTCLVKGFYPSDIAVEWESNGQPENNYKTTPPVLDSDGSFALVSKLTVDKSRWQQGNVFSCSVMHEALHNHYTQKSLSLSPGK
light: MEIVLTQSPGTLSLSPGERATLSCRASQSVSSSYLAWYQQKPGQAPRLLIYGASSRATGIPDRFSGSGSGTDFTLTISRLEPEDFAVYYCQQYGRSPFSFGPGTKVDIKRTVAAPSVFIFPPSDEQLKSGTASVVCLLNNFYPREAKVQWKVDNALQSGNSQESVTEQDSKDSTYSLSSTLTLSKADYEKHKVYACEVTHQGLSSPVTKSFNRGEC
notes: as for B1
For the molecule B2, the IC50 in test [1] is 4.7 nM. Moreover, in test [2], binding was put at a Kd of 4.37 nM, the koff was found to be 0.00487 s⁻¹ and the kon worked out at 1.12e+06 M⁻¹ s⁻¹. In test [3], the Bmax was determined as 1970 MFI and the Kd came out at 4.3 nM. Besides, in test [4], the Bmax came to 975 MFI and binding was characterised by a dissociation constant (Kd) of 0.4 nM.
